Key:
[1] = molecular target: the molecule itself; assay: SEC; analytical HP‐SEC, Agilent AdvanceBio SEC 300 Å column, phosphate‐buffered saline pH 7.4, 1.0 mL/min, UV 220 and 280 nm; purified ferritins before the pH jump
His‐tagged TfR1 = molecular target: T1, His‐tagged TfR1 (UniProt P02786 101-760); assay: BLI; Octet N2; His‐tagged TfR1 (50 μg/mL) immobilised on Ni‐NTA biosensors; HFt 25–500 nM or HFt‐W4 loaded with ellipticine 50–400 nM in solution; single exponential fits; conditions: both partners purified
T1 construct: transferrin receptor 1 (TfR1); No catalogue number is printed; also called transferrin receptor TfR1; TfR1 receptor; source: bought: Merck
T1 sequence (P02786 101-760): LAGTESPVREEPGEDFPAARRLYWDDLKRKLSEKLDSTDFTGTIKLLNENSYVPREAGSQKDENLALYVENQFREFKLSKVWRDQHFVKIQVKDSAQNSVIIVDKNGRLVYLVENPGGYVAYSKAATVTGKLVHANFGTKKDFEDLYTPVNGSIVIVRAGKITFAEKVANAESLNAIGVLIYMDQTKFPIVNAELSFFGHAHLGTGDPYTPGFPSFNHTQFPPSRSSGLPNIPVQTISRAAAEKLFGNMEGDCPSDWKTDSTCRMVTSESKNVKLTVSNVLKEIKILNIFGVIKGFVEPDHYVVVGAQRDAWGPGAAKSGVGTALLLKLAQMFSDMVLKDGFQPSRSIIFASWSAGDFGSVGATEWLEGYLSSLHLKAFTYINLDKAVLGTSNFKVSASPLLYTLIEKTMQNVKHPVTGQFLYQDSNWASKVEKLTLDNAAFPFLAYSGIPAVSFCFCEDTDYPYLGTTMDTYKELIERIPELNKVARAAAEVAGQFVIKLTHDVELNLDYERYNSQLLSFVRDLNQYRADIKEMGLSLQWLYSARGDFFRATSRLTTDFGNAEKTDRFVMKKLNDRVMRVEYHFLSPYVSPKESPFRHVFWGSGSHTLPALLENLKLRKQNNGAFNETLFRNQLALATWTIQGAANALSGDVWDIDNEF

B1: HFt‐W4 (natural protein, human, UniProt P02794 1-183, looked up)
chain: MTTASTSQVRQNYHQDSEAAINRQINLELYASYVYLSMSYYFDRDDVALKNFAKYFLWQSWEEREHAEKLMKLQNQRGGRIFLQDIKKPDCDDWESGLNAMECALHLEKNVNQSLLELHKLATDKNDPWLCDFIETHYLNEQVKAIKELGDWVTNLRKMGAPESGLAEYLFDKHTLGDSDNES
notes: human ferritin heavy chain (H ferritin) with four substitutions to tryptophan; synthetic gene in pET22b; 24-mer cage; In the BLI experiment the cage was loaded with ellipticine (a small molecule, about 98 molecules per cage) by a pH jump; the protein is the same; also called HFt‐W4 mutant; hydrophobicity‐enhanced ferritin nanoparticle; source: E. coli, purified (ammonium sulfate fractionation, …)
stoichiometry N [1]: 24 | Kd (His‐tagged TfR1): 25 nM

B2: HFt‐W6 (natural protein, human, UniProt P02794 1-183, looked up)
chain: MTTASTSQVRQNYHQDSEAAINRQINLELYASYVYLSMSYYFDRDDVALKNFAKYFLWQSWEEREHAEKLMKLQNQRGGRIFLQDIKKPDCDDWESGLNAMECALHLEKNVNQSLLELHKLATDKNDPWLCDFIETHWLNEQVKAIKELGDWVTNLRKMGAPESGLAEYLWDKHTLGDSDNES
notes: human ferritin heavy chain (H ferritin) with six substitutions to tryptophan; synthetic gene in pET22b; 24-mer cage as purified; also called HFt‐W6 mutant; source: E. coli, purified (ammonium sulfate fractionation, heat treatment at 70°C, DNase, Superdex 200 SEC); copies: 24
stoichiometry N [1]: 24

Reference: article PMC10661074 (Protein Science : A Publication of the Protein Society, 2023)
